# Results taken from patent US7033766B2, “Construction and screening of lantibody display libraries” (University of Maryland Office of Technology …, priority 2000, dated 2006).
# Test system: anti-sublancin antibodies
# Experiment: binding of anti-sublancin polyclonal antibodies to the displayed peptide (peroxidase colour reaction, magnetic beads)
# Conditions: rabbit antibodies raised against sublancin-KLH conjugate
# Method: The transformed host was cultured in Medium A to allow the Lantibody Display Peptide to be expressed. Expression was monitored by observing the appearance of the Display Peptide in the cytoplasm of the cell, the membrane, the cell wall and in the extracellular medium. The peptide was detected using polyclonal antibodies raised in rabbits against a sublancin-KLH conjugate as an antigen.
# To explore this hypothesis, cells expressing the Lantibody Display Peptide as shown in FIG. 8 were centrifuged out of the culture medium and resuspended in buffer. The cell suspension was treated with anti-sublancin antibodies, and washed to remove any unbound antibody. To determine whether anti-sublancin antibodies were bound to the surface of the cells, goat anti-rabbit antibodies that were conjugated with horseradish peroxidase were added and allowed to adsorb to any antibodies on the surface of the cells. The cells were washed and the peroxidase color reagent was added.
molecule,measurement,setting,value
"sublancin Display Peptide: mature sublancin segment (1–37), a 20-residue polyglycine spacer (38–57) and the subtilin leader segment (58–81) (protein, The peptide sequence of sunA-PG20-SL.) MEKLFKEVKLEELENQKGSGLGKAQCAALWLQCASGGTIGCGGGAVACQNYRQFCRGGGGGGGGGGGGGGGGGGGGMSKFDDFDLDVVKVSKQDSKITPQ",binding to polyclonal anti-sublancin antibody,,recognize and bind to a target substrate
same,binding to polyclonal anti-sublancin antibody,listed as Sublancin Display Peptide,responsible for the binding to sublancin antibodies
